Experimental data published in paper PMC12800186, “Intelectin-2 is a broad-spectrum antimicrobial lectin” (Nature Communications, 2026).
Values joined by “and” are separate entries in the source; they are usually repeats but may differ in a detail not shown here. Equal values may be shown once.

B1: StrepII-tagged mouse intelectin-2 (natural protein, UniProt Q80ZA0 20-313, looked up)
chain: AEENLDTNRWGNSFFSSLPRSCKEIKQEDTKAQDGLYFLRTENGVIYQTFCDMTTAGGGWTLVASVHENNLRGRCTVGDRWSSQQGNRADYPEGDGNWANYNTFGSAEGATSDDYKNPGYFDIQAENLGIWHVPNNSPLHTWRNSSLLRYRTFTGFLQRLGHNLFGLYQKYPVKYGEGKCWTDNGPAFPVVYDFGDAQKTASYYSPSGRNEFTAGYVQFRVFNNERAASALCAGVRVTGCNTEHHCIGGGGFFPEFDPEECGDFAAFDANGYGTHIRYSNSREITEAAVLLFYR
modifications: glycosylated (N-glycosylation examined with PNGase F)
notes: Mouse intelectin-2 (mItln2), GenBank AAO60215, UniProt Q80ZA0; amplified from the start to the stop codon and secreted from HEK293 cells; mass and extinction coefficient were calculated without the signal peptide; Non-covalent oligomers of variable size; also called mItln2; strep-mItln2; source: suspension-adapted HEK293 cells, transient transfection, purified from the expression medium …
B2: StrepII-tagged human intelectin-2 (A177S, C311G) (natural protein, UniProt Q8WWU7 27-325, looked up)
chain: AAASSLEMLSREFETCAFSFSSLPRSCKEIKERCHSAGDGLYFLRTKNGVVYQTFCDMTSGGGGWTLVASVHENDMRGKCTVGDRWSSQQGNKADYPEGDGNWANYNTFGSAEAATSDDYKNPGYYDIQAKDLGIWHVPNKSPMQHWRNSSLLRYRTNTGFLQRLGHNLFGIYQKYPVKYRSGKCWNDNGPAIPVVYDFGDAKKTASYYSPYGQREFVAGFVQFRVFNNERAANALCAGIKVTGCNTEHHCIGGGGFFPQGKPRQCGDFSAFDWDGYGTHVKSSGSREITEAAVLLFYR
notes: Human intelectin-2 (hItln2, ITLN2), cDNA AY358905; secreted from HEK293 cells; mass and extinction coefficient were calculated without the signal peptide; A177S introduces a glycosylation site, C311G removes an unpaired cysteine; For low pH and low salt experiments the protein was exchanged into PIPES buffer, pH 5.5; also called hItln2; StrepII-hItln2; source: suspension-adapted HEK293 cells, …

Experiments:
[1] = biological target: the molecule itself; test: cross-linking; 1 mg/mL mItln2 in HEPES/EDTA buffer with BS3 (0.1-5 mM), RT, 30 min; SDS-PAGE with DTT
[2] = biological target: the molecule itself; test: not stated; recombinant StrepII-hItln2; covalent trimers and higher-order oligomers (Supplementary Fig. 8E, F)

Protein	stoichiometry N [1]	stoichiometry N [2]
B1	2 and 3 and 6	
B2		≥ 3
